Ends that are not written are not given here.
Columns and labels:
CHO-APP cells = assay: Aβ secretion from CHO-APP cells, sandwich ELISA; type: cell-based, Chinese hamster; settings: 5 hrs treatment; 1 nM to 1 μM
Protocol: Cells were treated for 5 hrs with compound concentrations ranging from 1 nM to 1 μM. Aβ secreted in the cell media was quantified using a sandwich ELISA. Data are calculated relative to Aβ secreted from control cells treated with DMSO (vehicle) alone.
Cells are seeded in 12-well plates and treated for 6-24 hrs with peptide or vehicle. After treatment, the cells are examined under a light microscope to evaluate toxicity. Culture media is collected, centrifuged and stored at −20° C. for Aβ ELISA and for sAPPβ analysis. Cells are harvested in PBS and cell pellets collected by centrifugation and frozen at −80° C. until use. Pellets are homogenized in RIPA buffer (0.1% SDS, 0.5% sodium deoxycholate, 1% Triton X-100, 150 mM NaCl in 50 mM Tris-HCl, pH 7.4) to assay for BACE1 enzymatic activity. The data is normalised to protein concentration determined by the BCA.
0.5 μg of mouse monoclonal antibody WO2 (Aβ1-16) is coated in 384-well plates. After blocking with hydrolysed casein and washing with PBS containing 0.05% Tween 20 (PBS-T), biotinylated IE8 antibody (Aβ18-22) (20 ng dilution in 10 μL blocking buffer) is added followed by culture media samples (50 μL/well). A standard curve of Aβ peptide (0.03-3 ng/well) is run in parallel. […] The plates are read in a Wallac Victor 2 Multicounter instrument and data calculated relative to the Aβ peptide standard curve.

BACE1 = BACE1 (Homo sapiens, UniProt P56817); assay: BACE1 inhibition assay based on cleavage of fluorogenic APP substrate; type: biochemical; settings: peptide 100 nM and 200 nM; versus 0 nM control
Protocol: The peptide concentrations of 100 nM and 200 nM show a significant (*) difference to the upper limit when compared with the negative control. The mean fluorescent units are a representation of the cleaved product of APP by BACE1 (P<0.0 5).
A fluorescent BACE1 activity assay kit (Sigma-Aldrich, NSW, Australia), is used to not only show the cleavage of APP by BACE1, but also the inhibitors' ability to prevent cleavage of APP by BACE1. A measurement of fluorescence expresses the resulting cleaved APP product, which indirectly measures the activity of BACE1 in cleaving APP. Assays are conducted in triplicate with (1, 10, 100 and 1000 nM) or without the peptide inhibitors, as negative controls. Commercially available BACE1 inhibitors (STA-200 and Merck Compound IV) are used as references. Data derived from assays at various substrate concentrations are used to determine Ki values and the mode of inhibition (competitive/allosteric) using the Lineweaver-Burk method.

IL-13 binding to IL-4Rα = biological target: T1, IL-13 binding to IL-4Rα (Homo sapiens, UniProt P24394); assay: Inhibition ELISA of IL-13 binding to IL-4Rα; settings: pre-incubation of IL-4Rα with nM amounts of the peptide
T1 construct: purchased SBH Sciences (IL-4Rα); Sigma-Aldrich (IL-13)
T1 sequence (P24394 26-232 limits assumed): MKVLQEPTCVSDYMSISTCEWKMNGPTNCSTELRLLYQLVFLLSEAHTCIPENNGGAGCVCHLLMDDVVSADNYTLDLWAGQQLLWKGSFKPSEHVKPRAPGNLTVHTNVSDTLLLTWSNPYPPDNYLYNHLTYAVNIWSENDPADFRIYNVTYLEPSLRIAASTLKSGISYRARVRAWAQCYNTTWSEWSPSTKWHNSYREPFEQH
Source text: (§1) After extensive washing, HRP will be colorimetrically detected with the substrate o-phenylenediamine (Sigma-Aldrich) and read at 492 nm, according to our established protocols.

[1] = system: JAK-STAT6 signaling in HEK-Blue cells; assay: JAK-STAT6 signaling in HEK-Blue cells (SEAP reporter, QUANTI-Blue); type: cell-based
Protocol: Positive Control (PC) included cells treated with IL-4 cytokine alone. Control 1 (C1) included cells incubated with peptide antagonist only and Control 2 (C2) included cells without any treatment. The results represent the mean of 3 replicates within an experiment and the error bars show standard deviation. P<0.05* denotes significance of optical density (OD) readings compared to positive control (PC).
The percentage values represented here are a reflection of treatments used in FIG. 9 (75 μM, 150 μM and 225 μM). […] Positive control is denoted at 0%, which is used as a referral point for the standard value at which inhibition begins.
Activation of this pathway leads to SEAP secretion in the supernatant and is easily detected using QUANTI-Blue medium that changes colour to purple/blue in the presence of SEAP, following manufacturer's instructions. Cells are grown and maintained in DMEM medium with 10% FCS at 37° C. in a 5% CO2-humidified chamber, following the manufacturer's instructions and established cell culture techniques. […]
In FIG. 9, six treatment wells were used in total; 4 wells treated with peptide N1 and 2 wells without peptide as positive and negative controls (shown in results section). […] The subsequent results were read using an xMark microplate absorbance spectrophotometer (Bio-Rad) at a wavelength of 640 nm

endogenous BACE1 = biological target: T2, endogenous BACE1 (Homo sapiens, UniProt P56817); assay: BACE1 enzyme activity assay on M17 human neuroblastoma cell lysate; type: biochemical; settings: 200 nM peptide
T2 construct: endogenous in cells; host or cells: M17 human neuroblastoma cells (lysate)
Protocol: (§2) The M17 cell lysate was subjected to BACE1 enzyme activity assay and was read on a fluorometer in duplicate with one experimental group of a positive control, without the peptide inhibitor (0 nM), and an experimental group, with an added 200 nM concentration of the peptide inhibitor. […] The mean fluorescent units are a representation of the cleaved product of APP by BACE1 (P<0.0 5). This indicates the production of BACE1 in cultured human neuronal cells and the usefulness of this cell line.
as §2, with “5).” for “5). This indicates the production of BACE1 in cultured human neuronal cells and the usefulness of this cell line.”
The CelLytic extraction kit (Sigma-Aldrich) is used to prepare total protein extracts from M17 cells, with protein concentrations determined by BCA protein assay (Thermo Scientific Pierce, NH, USA), following the manufacturer's instructions.
Cell lysates obtained above are subjected to BACE1 enzyme assays, as described above.

IL-4 binding to IL-4Rα = biological target: T3, IL-4 binding to IL-4Rα (Homo sapiens, UniProt P24394); assay: Inhibition ELISA of IL-4 binding to IL-4Rα; settings: pre-incubation of IL-4Rα with nM amounts of the peptide
T3 construct: purchased SBH Sciences (IL-4Rα); Sigma-Aldrich (IL-4)
T3 sequence (P24394 26-232 limits assumed): T1 sequence (P24394 26-232 limits assumed)
Source text: as §1

Chain of BACE1 (P56817 46-501, species assumed): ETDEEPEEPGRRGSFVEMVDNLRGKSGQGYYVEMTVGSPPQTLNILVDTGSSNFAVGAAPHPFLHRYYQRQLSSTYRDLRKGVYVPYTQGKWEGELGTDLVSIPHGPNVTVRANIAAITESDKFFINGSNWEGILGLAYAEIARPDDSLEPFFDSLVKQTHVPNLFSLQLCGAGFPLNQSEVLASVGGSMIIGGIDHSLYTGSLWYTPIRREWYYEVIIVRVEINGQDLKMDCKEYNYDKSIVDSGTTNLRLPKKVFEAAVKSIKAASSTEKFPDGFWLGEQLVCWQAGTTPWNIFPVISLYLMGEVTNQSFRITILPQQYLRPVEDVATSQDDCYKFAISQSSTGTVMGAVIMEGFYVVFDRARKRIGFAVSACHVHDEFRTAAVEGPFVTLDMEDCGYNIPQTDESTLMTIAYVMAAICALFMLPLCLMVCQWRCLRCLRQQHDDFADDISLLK
T2 sequence (P56817 46-501): as the sequence (P56817 46-501, species assumed) above

**Q.** How did the “Aβ secreted in the cell media relative to DMSO control” value (CHO-APP cells) turn out when C[C@@H](NC(=O)c1cc(C(=O)N[C@@H](Cc2ccccc2)[C@H](O)CNC2CC2)cc(N(C)S(C)(=O)=O)c1)c1ccccc1 [Compound IV] was run?
**A.** inhibits Aβ secretion in a dose dependent manner

**Q.** What does the source list for FHESWPTFLSPS [peptide antagonist]?
**A.** inhibition of BACE1 activity (BACE1): more than 40%; reduction of IL-13 binding to IL-4Rα (IL-13 binding to IL-4Rα): 50%; inhibition of JAK-STAT6 signaling ([1]; 225 μM peptide, IL-4 stimulated HEK-Blue cells, dose-dependent (75, 150, 225 μM)): up to 59%; JAK-STAT6 signaling triggered by peptide alone ([1]; peptide without IL-4): did not trigger a non-specific JAK-STAT6 signaling; inhibition of endogenous BACE1 activity (endogenous BACE1): more than 50%; reduction of IL-4 binding to IL-4Rα (IL-4 binding to IL-4Rα): 25%

Reference: patent US20170204140A1, “ANTAGONISTIC PEPTIDES” (Deakin University, priority 2014, published 2017)
